T1: Recombinant DENV-2 sE (1-396) from strain 16681-PDK53 with C-terminal AviTag and poly-histidine tags (UniProt P29991 281-676, biotinylated on the AviTag for BLI)
T1 chain: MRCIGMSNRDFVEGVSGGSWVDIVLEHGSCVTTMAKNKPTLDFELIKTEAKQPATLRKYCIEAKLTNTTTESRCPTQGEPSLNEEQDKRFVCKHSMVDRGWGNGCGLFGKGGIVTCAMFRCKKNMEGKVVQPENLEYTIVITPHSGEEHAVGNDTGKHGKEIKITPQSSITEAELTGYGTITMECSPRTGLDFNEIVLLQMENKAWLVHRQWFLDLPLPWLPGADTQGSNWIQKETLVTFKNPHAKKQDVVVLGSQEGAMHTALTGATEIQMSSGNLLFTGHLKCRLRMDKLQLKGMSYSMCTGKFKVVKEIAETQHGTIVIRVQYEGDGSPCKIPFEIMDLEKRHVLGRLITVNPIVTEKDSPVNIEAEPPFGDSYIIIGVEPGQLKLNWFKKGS

B1: DENV-2 E (other)
chain: T1 chain
modifications: biotinylated on the AviTag for BLI
B2: MZ4 Fab (Fab, V domains shown)
VH: QVHLQESGPGLVRPSETLSLTCTVSDGSISSYYWSWIRQPPGKGLEWIGSIYYTGSTNYNPSLKSRVTMSVDTSKNQFSLRLNSVTAADTAMYYCAGLDRYSWNEGGDHWGQGILVSVSS
VL: QPVLTQPPSASGTPGQRVSISCSGSRSNLGKNTVNWYQQLPGTAPKLLIYNHSRRPSGVPERFSGSKSGTSASLAISGLQSEDEADYFCAAWDDSLNGLYVFGTGTKVTVLR

Experiments:
MZ2 = test: BLI; Fab
[1] = target: T1, Recombinant DENV-2 sE (1-396) from …; test: BLI; Fab

| Binder | Kd (MZ2) [nM] | Kd [1] [nM] |
| --- | --- | --- |
| B1 | 0.4 | – |
| B2 | – | 1 |
